Assay results from US6887705B1, “Tyrosine phosphorylated cleavage furrow-associated proteins (PSTPIPs)” (Genentech, Inc., priority 1997, dated 2005).

B1: delta 50: PST PIP missing the N-terminal 50 amino acids (protein)
chain: ERYGKELVQIARKAGGQTEMNSLRTSFDSLKQQTENVGSAHIQLALALREELRSLEEFRERQKEQRKKYEAIMDRVQKSKLSLYKKTMESKKAYDQKCRDADDAEQAFERVSANGHQKQVEKSQNKAKQCKESATEAERVYRQNIEQLERARTEWEQEHRTTCEAFQLQEFDRLTILRNALWVHCNQLSMQCVKDDELYEEVRLTLEGCDVEGDINGFIQSKSTGREPPAPVPYQNYYDREVTPLIGSPSIQPSCGVIKRFSGLLHGSPKTTPSAPAASTETLTPTPERNELVYASIEVQATQGNLNSSAQDYRALYDYTAQNSDELDISAGDILAVILEGEDGWWTVERNGQRGFVPGSYLEKLDYKDDDDK
B2: delta 75: PST PIP missing the N-terminal 75 amino acids (protein)
chain: SFDSLKQQTENVGSAHIQLALALREELRSLEEFRERQKEQRKKYEAIMDRVQKSKLSLYKKTMESKKAYDQKCRDADDAEQAFERVSANGHQKQVEKSQNKAKQCKESATEAERVYRQNIEQLERARTEWEQEHRTTCEAFQLQEFDRLTILRNALWVHCNQLSMQCVKDDELYEEVRLTLEGCDVEGDINGFIQSKSTGREPPAPVPYQNYYDREVTPLIGSPSIQPSCGVIKRFSGLLHGSPKTTPSAPAASTETLTPTPERNELVYASIEVQATQGNLNSSAQDYRALYDYTAQNSDELDISAGDILAVILEGEDGWWTVERNGQRGFVPGSYLEKLDYKDDDDK
B3: D197-A: dominant negative PTP HSCF, active site aspartate mutated to alanine (protein, UniProt Q99952 1-460, looked up, variant D197A)
Tyrosine-protein phosphatase …: MSRSLDSARSFLERLEARGGREGAVLAGEFSDIQACSAAWKADGVCSTVAGSRPENVRKNRYKDVLPYDQTRVILSLLQEEGHSDYINGNFIRGVDGSLAYIATQGPLPHTLLDFWRLVWEFGVKVILMACREIENGRKRCERYWAQEQEPLQTGLFCITLIKEKWLNEDIMLRTLKVTFQKESRSVYQLQYMSWPARGVPSSPDHMLAMVEEARRLQGSGPEPLCVHCSAGCGRTGVLCTVDYVRQLLLTQMIPPDFSLFDVVLKMRKQRPAAVQTEEQYRFLYHTVAQMFCSTLQNASPHYQNIKENCAPLYDDALFLRTPQALLAIPRPPGGVLRSISVPGSPGHAMADTYAVVQKRGAPAGAGSGTQTGTGTGTGARSAEEAPLYSKVTPRAQRPGAHAEDARGTLPGRVPADQSPAGSGAYEDVAGGAQTGGLGFNLRIGRPKGPRDPPAEWTRV
B4: delta 25: PST PIP missing the N-terminal 25 amino acids (protein)
chain: LQRLLDGRKMCKDVEELLRQRAQAEERYGKELVQIARKAGGQTEMNSLRTSFDSLKQQTENVGSAHIQLALALREELRSLEEFRERQKEQRKKYEAIMDRVQKSKLSLYKKTMESKKAYDQKCRDADDAEQAFERVSANGHQKQVEKSQNKAKQCKESATEAERVYRQNIEQLERARTEWEQEHRTTCEAFQLQEFDRLTILRNALWVHCNQLSMQCVKDDELYEEVRLTLEGCDVEGDINGFIQSKSTGREPPAPVPYQNYYDREVTPLIGSPSIQPSCGVIKRFSGLLHGSPKTTPSAPAASTETLTPTPERNELVYASIEVQATQGNLNSSAQDYRALYDYTAQNSDELDISAGDILAVILEGEDGWWTVERNGQRGFVPGSYLEKLDYKDDDDK

How the values were obtained:
CHO cells = experiment: Confocal microscopy of PST PIP forms expressed in CHO cells; format: cell-based, Chinese hamster; conditions: transfected CHO cells
Procedure: Confocal microscopy was performed as previously described (Spencer et al, (1997), supra). Briefly, CHO cells in chamber slides were transfected using Lipofectamine and the indicated plasmids. 48 hours later, cells were fixed in formaldehyde and stained with an anti-FLAG epitope specific antibody (Kodak) and Fluorescein-Phalloidin (Molecular Probes). Anti-Flag stained cells were washed and stained with Cy3-conjugated sheep anti-mouse IgG. Stained cells were observed using Molecular Dynamics Confocal Microscope™ (2001) and analyzed with ImageSpace™ software (Molecular Dynamics).

[1] = tested on: PSTPIP tyrosine phosphorylation; experiment: Tyrosine phosphorylation of PSTPIP in COS cells co-transfected with V-src; format: cell-based; conditions: COS cells expressing PSTPIP and V-src
Procedure: Baf3 cells were lysed in 1% Triton, 50 mM HEPES. 10% glycerol and 5 mM EDTA containing 1 μg/ml aprotinin, PMSF, leupeptin and pepstatin were 1 mM Sodium Vanadate and 10 mM Iodoacetic acid. Cells were treated with 0.1 mM Pervanadate for 4 hours before lysis. Immunoprecipitations were performed in the vanadate-containing lysis buffer using 1 μg/ml anti-PSTPIP polyclonal antibody and 400 μg of lysate protein at 4° C. overnight. Western blots were performed using 1 μg/ml affinity purified anti-PSTPIP or 1:5000 dilution of commercial 4G10 anti-phosphotyrosine monoclonal (Upstate Biotech). Signal was detected by HRPO-ECL reagents (Pierce). The C221-S mutant was as previously described (Cheng et al., (1996) supra). The PTP HSCF D197-A mutant was generated using PCR. Mutagenesis primer D197A.F ([…]) (SEQ ID NO:24), corresponding to nucleotide 591, and primer D197A.R ([…]) (SEQ ID NO:25) which corresponds to the stop codon, were used in PCR to generate a fragment that could be cut with Mscl and XbaI. pRK.HA.38 WT, a plasmid which encoded the wild type enzyme under the control of the cytomegalovirus promoter (Cheng et al., (1996) supra), was digested with Clal and Mscl and the resulting 600 bp fragment was ligated with the Mscl-Xbal PCR fragment into the Clal and Xbal sites of the pRK.tkneo. A plasmid encoding the V-src oncogene under the control of the SV40 early promoter was the kind gift of Dr. Art Levinson (CEO-Genetech, Inc.). NIH 3T3 cells and the COS-7 cells were cultured in high glucose DMEM supplemented with 10% FBS, 2 mM L-Glutamine, 10 mM HEPES pH 7.2 and pen-strep.
COS-7 cells were transfected by electroporation. Briefly, 1.5×10^6 COS-7 cells were mixed with 24 μg total DNA in PBS and electroporated at 960 μF, […] (Bio-Rad™ Gene Pulsar™). Following electroporation, cells were seeded in 10 cm dishes and incubated for 3 days. 10-cm dishes of transfected COS cells were washed twice with ice-cold PBS, and lysed in 1 ml of M-RIPA (50 mM Tris 7.4, 1% NP40, 0.25% DOC, 150 mM NaCl, 1 mM sodium ortho-vanadate, 1 mM NaF plus Complete™ Protease Inhibitors (Boehringer Mannheim)). Lysates were incubated for 15 minutes with 100 μl UltraLink Immobilized Protein A/G™ (Pierce) at 4° C., followed by centrifugation for 5 minutes. Supernatants were collected and stored at −70° C. or directly immunoprecipitated. 5 μg of M2 or 12CA5 was added to 500 μl of lysate and incubated overnight at 4° C. Ultralink Protein A/G™ was added and incubation continued for 2 hours at 4° C. The immune complexes were washed 3 times with M-RIPA. The proteins were subjected to SDS-PAGE and transferred to nitrocellulose in 1X Transfer Buffer™ (Novex). Immunoblots were blocked overnight at 4° C. in 3% milk/PBS. To detect Flag-tagged PIP, blots were incubated with 10 μg/ml Bio-M2 (Biotinylated anti-FLAG monoclonal Ab, KODAK) followed by incubation in 10 μg/ml streptavidin-HRP (UBI). To detect HA-tagged PTPhscf, blots were incubated in anti-(HA)-peroxidase (Boehringer Mannheim) as per manufacturer's instructions. To detect phosphotyrosine, blots were incubated in HRP-conjugated 4G10 (anti-phosphotyrosine monoclonal, UBI) as per manufacture's instructions.
COS cells were transfected with a constant amount of either the wild type of W232A mutant of PST PIP and cotransfected with increasing amounts of a plasmid encoding the v-Src tyrosine kinase (Spencer et al, (1997), supra). Plasmid concentrations were equalized with an empty vector containing the CMV promoter. After 48 hours, lysates were prepare and immunoprecipitated with anti-FLAG monoclonal antibody. Precipitates were run on SDS polyacrylamide gels, blotted, and probed with either anti-FLAG antibody or anti-phosphotyrosine antibody as previously described (Spencer et al, (1997), supra). Bound antibodies were visualized using enhanced chemiluminescent reagents.

PTP HSCF = target: T1, PTP HSCF (Mus musculus, UniProt Q61152); experiment: In vitro GST pull-down binding of PST PIP forms to PTP HSCF; conditions: in vitro
T1 construct: the PST (and C-terminal homolog) of PTP HSCF (amino acids 304-453); made in house; host or cells: E. coli DH5-alpha
T1 sequence (Q61152 304-453): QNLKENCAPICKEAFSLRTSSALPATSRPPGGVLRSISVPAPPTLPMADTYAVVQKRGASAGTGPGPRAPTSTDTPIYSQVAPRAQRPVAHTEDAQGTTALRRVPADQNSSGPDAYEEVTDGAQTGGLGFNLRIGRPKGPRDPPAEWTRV
Procedure: The binding was carried out according to the method of Wong and Johnson (Wong et al., J. Biol. Chem. 271(35):20981-20984 (1996)). Briefly, 1 μg of plasmid with either the PSTPIP protein or PTP HSCF under the control of the Sp6 promoter was in vitro transcribed/translated using the Promega™ TnT Rabbit Reticulocyte™ system. Samples were diluted in 50 mM HEPES, pH 7.2, 1% triton X 100, 10% glycerol, 100 mM NaCl, 5 mM EDTA and 2 μg/ml each of leupeptin, pepstatin, aprotinin, and PMSF. […] This was reacted for 1 hour at 4° C. and then the resin washed 6 times in HEPES/Triton binding buffer before SDS gel electrophoresis. The peptides were synthesized on an automated Milligen 9050 Peptide Synthesizer using standard solid phase chemistry with FMOC protected amino acids on a p-alkoxybenzyl alcohol resin. Dried peptides were re-suspended in the HEPES/Triton Binding buffer at a concentration of 10 mg/ml. Peptide inhibition was performed by adding the peptide first to the in vitro translation product and then the GST-fusion followed by the GSH-Sepharose. The binding/washing steps were as previously described. The peptides synthesized and the PTPs they were derived from were: • PXXP-HSCF: 432[…]451 (PTP HSCF) (SEQ ID NO:20), • PXXP-PEP: 782GFGNRFSKPKGPRNPPSAW800 (PTP PEP) (SEQ ID NO:21), • PXXP-PEST: 761[…]780 (PTP PEST) SEQ ID NO:22), • PXXP-CONTROL: 334[…]353 (PTP HSCF) (SEQ ID NO:23).
In vitro binding analyses between various PTP HSCF and PST PIP constructs were performed as previously described (Spencer et al, (1997), supra). Briefly, plasmids were transcribed and translated in vitro using the TnT Rabbit Reticulocyte Lysate System (Promega). Samples were diluted in 50 mM HEPES, pH 7.2, 1% triton X-100, 10% glycerol, 100 mM NaCl, and 2 μg/ml each of leupeptin, pepstatin, aprotinin and PMSF (lysis buffer). Samples were than reacted with GST fusion proteins at various concentrations, and the bound proteins were centrifuged using glutathione-sepharose beads and analyzed on SDS polyacrylamide gels. C-terminally-derived peptide inhibition studies were performed by incubating the GST fusion protein binding reactions in the presence of 10 μg/ml of the indicated peptides. Peptides were produced by FMOC-protected amino acids as previously described (Spencer et al, (1997), supra). In vivo interactions between various forms of PTP HSCF and PST PIP were also performed as previously described (Spencer et al, (1997), supra). Briefly, COS cells were transfected with various constructs, and after 48 hours, lysates were prepared and immunoprecipitated with antibodies to either the FLAG epitope contained at the C-terminus of PST PIP or an HA epitope contained at the N-terminus of PTP HSCF. The resultant blots were probed with anti-FLAG to detect PST PIP, anti-HA to detect PTP HSCF or anti-phosphotyrosine to detect levels of this modified amino acid in each protein.

| Molecule | cellular localization of PST PIP forms (assay for correct folding) (CHO cells) | level of tyrosine phosphate on PSTPIP on cotransfection of PTP HSCF forms [1] | binding of in vitro translated PST PIP forms to GST fusion of C-terminal 149 amino acids of PTP HSCF (PTP HSCF) |
| --- | --- | --- | --- |
| B1 | formed large aggregates within the cytoplasm |  |  |
| B2 | formed large aggregates within the cytoplasm |  |  |
| B3 |  | slightly more efficient dominant negative protein |  |
| B4 | predominantly co-localized with the cortical actin cytoskeleton |  | capable of interacting |
